{
  "source": "the DeepSol protein solubility set",
  "data": [
    {"assay": "soluble on expression in E. coli; label from the status in PepcDB or PDB records", "values": [
      {"sequence": "SDWKEVLRRRLATPNTCPNKKKSEQELKDEEMDLFTKYYSEWKGGRKNTNEFYKTIPRFYYRLPAEDEVLLQKLREESRAVFLQRKSRELLDNEELQNLWFLLDKHQTPPMIGEEAMINYENFLKVGEKAGAKCKQFFTAKVFAKLLHTDSYGRISIMQFFNYVMRKVWLHQTRIGLSLYDVAGQGYLRESDLENYILELIPTLPQLDGLEKSFYSFYVCTAVRKFFFFLDPLRTGKIKIQDILACSFLDDLLELRDEELSKESQETNWFSAPSALRVYGQYLNLDKDHNGMLSKEELSRYGTATMTNVFLDRVFQECLTYDGEMDYKTYLDFVLALENRKEPAALQYIFKLLDIENKGYLNVFSLNYFFRAIQELMKIHGQDPVSFQDVKDEIFDMVKPKDPLKISLQDLINSNQGDTVTTILIDLNGFWTYENREALVANDSENSADLDDT", "soluble on expression in E. coli": "soluble"},
      {"sequence": "KMETAFDIERTMGRRIEYVSNILAVSESELGSLYSYDIMIDLGEEGKAKTPEALRALDSIARHAEAYSLTKRTTSILNILKDLNQTLHDGDQAYYSIPGDAEEVAQQLLLYENAGGSEAESWIDYEYRRLRLKVEMTSYNSGEAEWELQDITDYARKLFPEAEITPVGSLPQFTTMMQYVVRGQ", "soluble on expression in E. coli": "not soluble"},
      {"sequence": "MSLKRFVAEKMDNQDHWDLNIAPLTNKHIAIVGAGPAGAQAAIELRRQGHEVTIYEKLDVYGGMMRVGIPEYRLPRDVIDFEYSYLAMLGIKTQFGVEIGKDISFDTLRSEHDAVILAHGAHVGSIIPLPGHDNDGVFSAVEYLKEISETRQFPRACKRVMVIGGGDVAMDCARSSWRIGASDVYQCSLESLESLPASQIEIDESLEEGVEFNAGWGPVAIEHENGKVTGITIKKVLSIFDEQGNFAPQYSEESKTISVDTVVFATGQIVADITDGALEQTRGGRYVVDKQTLASSLEDVFVAGDACGGNIVIEAMALGRKAAMSVERFLTARPLTEDRDFEQEYSYSSRLDVPLPKGTVDTPRLHGELRDAEERKQDFAQVDLGFTEEQIKQEASRCLQCSCKLCMTECIMMNDFSDCPKTIFSDFVNNKSMDPLLAYSCNACDQCTIVCPKDFPMKEMFLGARTDFVKANNGESPMPGHKAINMHQKLGFSKIFTMAKRAVSTKEGHHHHHH", "soluble on expression in E. coli": "soluble"},
      {"sequence": "MGSDKIHHHHHHMDVWKVLGRYSNVLVLSKKNSILILEINGKAPKPGESVRVWNNRVMTGKELKAKLLAHFDEELSLKVLKVPGLLEFLHDISRGFDKKYVHFVKLFVKHLVPSRFLKMNNEEKKIIMKSFPEVFESGPSSVRIRFSVKSFFEYVQKNFPINRNINEEALRRTVTLKRPILSTEEYDVYQMNEPLSKGFAGKNYMALPLSGKYLIVVFRRRNFPFVEFKLKEEPDLTFFEDFVNDKVAVEKRENGWVLIWKDREMMEFELPDKELLPRPEKLVDDDLLDAVFLLNSLLEENVRFASMPSFGVQEMWWEKDNNRVILVVNTVRFGRVVADVILEGRSLSVRFYAEKNSEELSAHSEELQKEFERLGLIAHVFFLRKDPMNWEGFNAYG", "soluble on expression in E. coli": "not soluble"},
      {"sequence": "MYNVVSFNNEGVEHMKPTSEKSKEIRKKYKAPGASDEQLANSIKVASEFEYKNSSTFGWGGVYMVDRFQSMITGRAITNNTQKLLDAQALEEEASKANLKQ", "soluble on expression in E. coli": "not soluble"},
      {"sequence": "MRNIYDLANELERGIRALPEYKNLVEKKEAIATDAEASALFKEFTDFQEDFYAKMQAGTMPTAEEQAAVQELGQKVEANALLKEYLTAQQSLSVYLNDIERIIFKPLQELNN", "soluble on expression in E. coli": "not soluble"},
      {"sequence": "MATISSLGSSGLELEGILEKLQAAEEKKLTLITARQASYETRISAYSKIQAAVEAVQKAAATLGSIDTLSAVKAVVSGDGLSVKTAAGAVPGQYTVNIDKLATAQNLQSGELDSRTDKHGTGGSIEIVQKDGTTTTVTLGEDTSLNGIVKAINGTDGLDVRATVISDGNGKHYLMLNNKTEGTEAAVTRITVSGNQEVADILDFDAANAGASNLTVQLAAQKAELTINGIPVVSDTNTVETAIDGLTLTLTKQTAAPLTVTVSSDPSVAATAVNDFVKAYNGLQTTIADLTAFDVKAEKQSALTGDGTTRNIQSAIAAALRVATGEGTLRTLSQLGITTDPKTGSLKTDTEKLEAALRDNPADVARIFSGPFGLGEKVKLATEQILGDEGSIKIRQEGLEETLESLQNQYDRQKLSIAATIEAYRKQFVQLDVFVTQMNNTSNYLSQQFAALSGTKK", "soluble on expression in E. coli": "not soluble"},
      {"sequence": "MEDEVFVFTPKGDLFKLAKGATVLDFAFHIHSKLGCKCIGAKVNGKNVQLKQKLNSGDQVEIMTSNTQTPKQDWLEHHHHHH", "soluble on expression in E. coli": "not soluble"},
      {"sequence": "MGSDKIHHHHHHMIPLEHRYAQIEKAITYIDENFRAHPSVDEIAQNVGMSKYHFIRVFKEYAGVTPKQFLHCVTLNYAKEHIKESRSILESSLDIGLSSSSRLHELFVNLIGVTPREWRERGRGVLVTYGFGQTPFGEALIGFTDKGICYLGLMSDNKLEILGRFYELWGEAILEYDEKAAQKYLGYIFDRGEEGSPWNLGTNSQVNAWKALINLSRHLEDRVEGLIPCCGIISRSGAMSGHRWRIERGAALSLLDDIREKGSFGFSDNIDL", "soluble on expression in E. coli": "not soluble"},
      {"sequence": "MSLTKLKKVMISVIAATLLLLAGCGSSAVVKTDAGSVTQDELYEAMKTTYGNEVVQQLTFKKILEDKYTVTEKEVNAEYKKYEEQYGDSFESTLSSNNLTKTSFKENLEYNLLVQKATEANMNVSESKLKTYYKTWEPDITVRHILVDDEATAKEIQTKLKNGEKFTDLAKEYSTDTATSTNGGLLDPFGPGEMDETFEKAAYALENKDDVSGIVKSTYGYHLIQLVKKTEKGTYAKEKANVKAAYIESQLTTENMTAALKKELKAANIDIKDSDLKDAFADYTEGHHHHHH", "soluble on expression in E. coli": "soluble"},
      {"sequence": "MLEFFDEDFDNMALVEGALELNKSVNPETNVHWAKQELERLYQEAEATLIHETDEEQRFDSFLRLFFHEWGFKGDDQEYFISDNSFIDKVLERKKGIPVSLGAILLYLGNRLGFPMKGVTFPTQFLIKVDWMHKTPDYINPFNGEYVGEKILQAWLIGQEGPLAQLKPEHFDEADNPTVIGRWLALIKSAMLREERYTLALRCTNLALTFVPDDPYEIRDRGFIFQQLECHQVAVSDFQYFIDQCPDDPASELLKSQVNAMSEKHVTLHLEHHHHHH", "soluble on expression in E. coli": "soluble"},
      {"sequence": "SRNICYDAFVSYSERDAYWVENLMVQELENFNPPFKLCLHKRDFIHGKWIIDNIIDSIEKSHKTVFVLSENFVKSEWCKYELDFSHFRLFDENNDAAILILLEPIEKKAIPQRFCKLRKIMNTKTYLEWPMDEAQREGFWVNLRAAIKS", "soluble on expression in E. coli": "soluble"},
      {"sequence": "MPIATPEVYAEMLGQAKQNSYAFPAINCTSSETVNAAIKGFADAGSDGIIQFSTGGAEFGSGLGVKDMVTGAVALAEFTHVIAAKYPVNVALHTDHCPKDKLDSYVRPLLAISAQRVSKGGNPLFQSHMWDGSAVPIDENLAIAQELLKAAAAAKIILEIEIGVVGGEEDGVANEINEKLYTSPEDFEKTIEALGAGEHGKYLLAATFGNVHGVYKPGNVKLRPDILAQGQQVAAAKLGLPADAKPFDFVFHGGSGSLKSEIEEALRYGVVKMNVDTDTQYAFTRPIAGHMFTNYDGVLKVDGEVGVKKVYDPRSYLKKAEASMSQRVVQACNDLHCAGKSLTHHHHHH", "soluble on expression in E. coli": "soluble"},
      {"sequence": "MKRKTIDIITLGCSKNLVDSEQLMRQLEEAGYDVTHDSEKPTGEIAVINTCGFIGDAKEESINMILEFAQEKEEGNLEKLFVMGCLSERYLKELAIEIPQVDKFYGKFNWKGLLQDLGKAYHEELHIERTLTTPKHYAYLKISEGCDRKCSYCAIPIITGRHVSRPIEEILDEVRYLVSNGVKEFQVIAQELTYYGVDLYKKQMLPELIERISEIPGVEWIRLHYAYPAHFPEELFRVMRERDNVCKYMDIALQHISDNMLQRMRRHVTKKETYRLIEQFRKEVPGIHLRTTLMVGHPGETEGDFEELKEFVRKVRFDRMGAFTYSEEEGTYAAANYEDSIPQELKQARLDELMAIQQGISTELSASKVGQKMKVIIDRIEGEYYIGRTEFDSPEVDPEVLIRCEGDNLMIGNFYQVQVIDSDEFDLFGEIILEHHHHHH", "soluble on expression in E. coli": "soluble"},
      {"sequence": "MGSDKIHHHHHHMDRVQAMRVFVAVVDCGGFTRAAQQLQLPRATVSSAVQQLEAQLGARLLHRTTRRVQLTLDGGTFYERCQQLLADFDELESLFSQQGASPRGKLRIDVPGPIGRQVLAPALPEFFRLYPGIELELGVTDRPVDLIQEGVDCVIRVGALAESRLVARRIGMLPQGNYASPDYLAAFGAPASPDALAGHRAVNYASPSTGKVFAWEYLQDGERRELALQSLVSVNQVESYIACALAGLGMIQLPRYDAEPHVAAGALVEVLADWPPPAMPVSVLYPHRRHLSRRVQVFVEWAGALLRERLRLGA", "soluble on expression in E. coli": "not soluble"},
      {"sequence": "MKLIAESGSTRTEWALVEDNHLVQRVFTEGLNPFFQTRREISRSVRLGLPESFFKKKLDQVYYYGAGCSSYEKKNILGASLVAQFKTPIQVESDLLAAARGLFKCEAGIACILGTGSNSCFYDGKIIVKNVKAAGYILGDEGSGAVLGKLFLADLLKGLAPKELANEFHEKFRISVNDVMESVYNLPFPNRFLGTIAYFLGDYMDNEYVYNLLTNNLRSFFNRNVCQYDYINYPIRFVGSLAYAYPDILQEVAQEFGVEIDVIEETPMNGLIEFHSMNIEESMAGDPLEHHHHHH", "soluble on expression in E. coli": "not soluble"},
      {"sequence": "MGSDKIHHHHHHRFMRIMMTSVLNNTKTQKVKFWLLKNYLSPKFKETIPKLAEFYKFEFELVEYKWPKWLHKQTEKQRVMWGYKILFLDVLFPLNVDKIIFVDADQVVRADLQELMDFNLNGAPYGYVPFCESRTEMDGFRFWKSGYWKNHLMGRKYHISALYVVDLKAFREFSAGDRLRGRYDSLSADPNSLSNLDQDLPNNMLHEVPIKSLPQEWLWCETWCDDGSKEKAKTIDLCNNPLTKEPKLNSAKRIIKEWTEYDSEISKVLNSADINTPSPSVDRDEL", "soluble on expression in E. coli": "not soluble"},
      {"sequence": "MGHHHHHHSHMGVAGTPGLPESPDKSPVGRKKSKGLATRLSRRRVSCRELGRPDCDGWLLLRKAPGGFMGPRWRRRWFVLKGHTLYWYRQPQDEKAEGLINVSNYSLESGHDQKKKYVFQLTHDVYKPFIFAADTLTDLSMWVRHLITCISKYQSP", "soluble on expression in E. coli": "soluble"},
      {"sequence": "MDLSNRTVLIVGGTSGIGRELARRFAAAGSTVAVGGRSPEALSELAGEGFGTISIDVTDSASVASARDAVLARYPELDTVVTMPGIMLLEDLRDPAHFEAAATTIDTNLVGTIRVIDAFTPHLVRRGAGTFITVTSGIAFLPFPPMPTYAASKAAVHAYSEALRAQLDGTGVSVVELVPPAVATAGQEKVNPHALPLDDFATEVVQLLSEDPTPREILVKAALMHRWAERDGTYDDLVAQRSQALAMLPSREG", "soluble on expression in E. coli": "not soluble"},
      {"sequence": "MVYSKTFRVEEKSITVSARGTIGVVFYRDFAYLPAVSLICFVPKEEFDIRFLFHALRAIKFKKQGSATGQLTVAQFKEYGIHVPSLKKQKEIAAILDPLYSFFTDLNEGLPAEIELRKKQLDYYQNFLFNWIQKQKELVEQASTN", "soluble on expression in E. coli": "soluble"},
      {"sequence": "MVIELKNEKVTVQFKEFGGALSSIKDQDGIEYLWQGNPAYWSSQAPVLFPICGSLRNDKGIYTSKKHSHRYGSIPRHGLVRKKNFRFEQLGKDSVVFTITPDKEMLMQYPYHFELKIIYTLKHTTIRTEYQVINKEKESIMPYFIGGHPGLNCPLFAGDRYEDYYLEFEKEETCTVPKSFPDTGLLDLQDRKIFLKGQKYLDLDYSLFTHDAITLDNLQSRSVSLRSKNHGGGLRLDFADFPYLILWSTANKSPFIALEPWSGLSTAVDESDYFEEKRNVSFVEPGQFDRNYFDITVLLEHHHHHH", "soluble on expression in E. coli": "soluble"},
      {"sequence": "SHPNQNDKIVVGLDIGTTKICAIVGRKNEYGKLEILGIGKAVSEGVIRGMVTNINLTVTAIEKAIKEASDQSGIDIGVVNVGIAGQHIKSSVHHHGINRPGGDEEISVDDVNRLTADMYRTVMPFGN", "soluble on expression in E. coli": "not soluble"}
    ]}
  ]
}
